# Experimental data published in article PMC4704858 (Science (New York, N.Y.), 2015).
# B1: MvINS, an Insig homolog from Mycobacterium vanbaalenii PYR-1 (wild type) (natural protein)
# chain: MRLRISEAVVLFLLGAVAALIGDHSHVVTGTTVYHTDAVPFVWSSPFWFPILVGAATASLAELRLHLPAPRDGVTARQALGGVAAVVGTYVTTALVHAFPVVPVTALVCAAAAITWCVLGDGPGAACGVVIAVIGPAVEIALVQLGVFAYHPDSDGLFGVAPFLAPLYFAFGVVAALLGELAVARRPQLGPPVCDTVSRGPGAG
# Target: the molecule itself
# Assay: crystal structure
protein,measurement,value
B1,stoichiometry N,3
